Target: recombinant B7-H4 protein (Phe29 to Ala258) (Homo sapiens, UniProt Q7Z7D3)
Experiment: ELISA

recombinant B7-H4 protein (Phe29 to Ala258), sequence (Q7Z7D3 29-258): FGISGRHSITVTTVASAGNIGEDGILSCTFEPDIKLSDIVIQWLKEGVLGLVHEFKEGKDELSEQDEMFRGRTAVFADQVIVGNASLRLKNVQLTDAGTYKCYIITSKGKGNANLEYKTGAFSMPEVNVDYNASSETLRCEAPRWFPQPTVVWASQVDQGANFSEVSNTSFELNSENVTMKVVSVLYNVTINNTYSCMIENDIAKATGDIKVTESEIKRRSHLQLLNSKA

EC50 | Binder
~22 nM | anti-B7-H4 scFv S2 (scFv, V domains shown) VH: AVTLDESGGGLQTPGGGLSLVCKASGFTFSSYGMGWMRQVPGKGLEYVAVIDAGSGTWYATAVKGRATISRDNGQSTVRLQLNNLRAEDTATYYCAKSANAGAPDGAWIDAWGHGTEVIVSS VL: LTQPSSVSANLGGTVEITCSGGSGGYGWFQQKSPGSAPVTLIYNNNKRPSDIPSRFSGSKSGSTATLTITGVRAEDEAVYYCGGWDSIDSGIFGAGTTLTVL
~33 nM | anti-B7-H4 scFv S4 (scFv, V domains shown) VH: AVTLDESGGGLQTPGGALSLVCKASGFTFSSYGMGWMRQVPGKGLEYVAVIDAGSGTWYATAVKGRATISRDNGQSTVRLQLNNLRAEDTATYYCAKSANAGAPDGAWIDAWGHGTEVIVSS VL: LTQPSSVSANLGETVKITCSGGSYSYGWYQQKSPGSAPVTVIYDNNKRPSDIPSRFSGSKSGSTGTLTITGVQAEDEAIYYCGSRDSNTGYAAFGAGTTLTVL

Source: article PMC8390317 (Experimental Animals, 2021)
